The values that follow are results of earlier work, collected in PMC3166974.

As usually defined, the Kd is the constant that tells how readily two partners part at equilibrium.

The target in one data set is PKR (Homo sapiens) (UniProt P19525).
For another data set, the target named is SecA (Escherichia coli) (UniProt P10408).

As to PKR (from UniProt P19525), the equilibrium dissociation constant (Kd) with PKR (Homo sapiens) was 500 µM.

For the substance SecA (from UniProt P10408), in the data set with SecA (Escherichia coli), the Kd was 18.6 µM.
